Experimental data published in patent US20090202547A1 (FIBRON, published 2009).
Changes are numbered by the printed parent chain.

T1: FR1exFc (UniProt P11362 22-376, limits assumed)
T1 construct: extracellular domain; also called FGFR1/Fc; FR1/Fc; not shown: Fc part; the construct of FR1exFc is not described
T1 sequence (looked up): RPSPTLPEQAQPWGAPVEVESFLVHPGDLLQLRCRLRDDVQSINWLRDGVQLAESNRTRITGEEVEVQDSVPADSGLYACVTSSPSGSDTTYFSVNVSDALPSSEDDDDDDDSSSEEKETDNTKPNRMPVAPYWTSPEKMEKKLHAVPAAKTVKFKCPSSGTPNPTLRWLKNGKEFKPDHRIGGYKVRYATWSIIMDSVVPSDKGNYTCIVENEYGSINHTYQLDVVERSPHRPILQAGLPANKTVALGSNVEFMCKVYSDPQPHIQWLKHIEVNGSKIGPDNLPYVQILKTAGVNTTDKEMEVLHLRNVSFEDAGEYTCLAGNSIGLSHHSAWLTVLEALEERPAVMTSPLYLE

T2: hFR3^D2Fc (human, UniProt P22607 143-250)
T2 construct: Only domain 2 of the entry stood in the assay; also called product of pChFR3^D2Fc; not shown: human Fc
T2 sequence: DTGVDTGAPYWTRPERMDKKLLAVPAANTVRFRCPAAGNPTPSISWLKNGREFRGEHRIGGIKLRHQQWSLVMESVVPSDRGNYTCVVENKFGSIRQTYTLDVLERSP

B1: MSPRO28 (Fab, V domains shown)
VH: QVQLVQSGAEVKKPGSSVKVSCKASGGTFSSYAISWVRQAPGQGLEWMGGIIPIFGTANYAQKFQGRVTITADESTSTAYMELSSLRSEDTAVYYCARGGGWVSHGYYYLFDLWGQGTLVTVSS
VL: DIQMTQSPSSLSASVGDRVTITCRASQGISSYLAWYQQKPGKAPKLLIYAASSLQSGVPSRFSGSGSGTDFTLTISSLQPEDFAVYYCFQYGSIPPTFGQGTKVEIKR
B2: MSPRO26 (Fab, V domains shown)
VH: QVQLVQSGAEVKKPGASVKVSCKASGYTFTSYYMHWVRQAPGQGLEWMGWINPNSGGTNYAQKFQGRVTMTRDTSISTAYMELSSLRSEDTAVYYCARGYWYAYFTYINYGYFDNWGQGTLVTVSS
VL: DIALTQPASVSGSPGQSITISCTGTSSDVGGYNYVSWYQQHPGKAPKLMIYDVSNRPSGVSNRFSGSKSGNTASLTISGLQAEDEADYYCQSYDNNSDVVFGGGTKLTVLG
B3: MSPRO11 (Fab, V domains shown)
VH: QVQLVQSGAEVKKPGASVKVSCKASGYTFTSYYMHWVRQAPGQGLEWMGWINPNSGGTNYAQKFQGRVTMTRDTSISTAYMELSSLRSEDTAVYYCARYYGSSLYHYVFGGFIDYWGQGTLVTVSS
VL: DIALTQPASVSGSPGQSITISCTGTSSDVGGYNYVSWYQQHPGKAPKLMIYDVSNRPSGVSNRFSGSKSGNTASLTISGLQAEDEADYYCQSHHFYEVFGGGTKLTVLG
B4: MSPRO59 (Fab, V domains shown)
VH: QVQLQQSGPGLVKPSQTLSLTCAISGDSVSSNSAAWNWIRQSPGRGLEWLGRTYYRSKWYNDYAVSVKSRITINPDTSKNQFSLQLNSVTPEDTAVYYCARSYYPDFDYWGQGTLVTVSS
VL: DIELTQPPSVSVAPGQTARISCSGDALGDKYASWYQQKPGQAPVLVIYDDSDRPSGIPERFSGSNSGNTATLTISGTQAEDEADYYCQSYDGPDLWVFGGGTKLTVLG
notes: HuCAL Fab, framework VH6_L3
B5: MSPRO12 (Fab, V domains shown)
VH: QVQLKESGPALVKPTQTLTLTCTFSGFSLSTSGVGVGWIRQPPGKALEWLALIDWDDDKYYSTSLKTRLTISKDTSKNQVVLTMTNMDPVDTATYYCARYHSWYEMGYYGSTVGYMFDYWGQGTLVTVSS
VL: DIELTQPPSVSVAPGQTARISCSGDALGDKYASWYQQKPGQAPVLVIYDDSDRPSGIPERFSGSNSGNTATLTISGTQAEDEADYYCQSYDFDFAVFGGGTKLTVLG
notes: HuCAL Fab, framework VH2_L3
B6: MSPRO55 (Fab, V domains shown)
VH: QVQLVQSGAEVKKPGASVKVSCKASGYTFTSYYMHWVRQAPGQGLEWMGWINPNSGGTNYAQKFQGRVTMTRDTSISTAYMELSSLRSEDTAVYYCARSMNSTMYWYLRRVLFDHWGQGTLVTVSS
VL: B2 VL with N95M, N96Y, S97N, D98Y, V99I
B7: MSPRO24 (Fab, V domains shown)
VH: QVQLVQSGAEVKKPGSSVKVSCKASGGTFSSYAISWVRQAPGQGLEWMGGIIPIFGTANYAQKFQGRVTITADESTSTAYMELSSLRSEDTAVYYCARVNHWTYTFDYWGQGTLVTVSS
VL: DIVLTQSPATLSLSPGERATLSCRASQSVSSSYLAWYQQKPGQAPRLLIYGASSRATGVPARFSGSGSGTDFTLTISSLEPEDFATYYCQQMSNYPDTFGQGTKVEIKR
B8: MSPRO54 (Fab, V domains shown)
VH: QVQLVQSGAEVKKPGASVKVSCKASGYTFTSYYMHWVRQAPGQGLEWMGWINPNSGGTNYAQKFQGRVTMTRDTSISTAYMELSSLRSEDTAVYYCARNMAYTNYQYVNMPHFDYWGQGTLVTVSS
VL: B5 VL with F92Y, D93F, F94K, A95L
B9: MS-Pro-26-dHLX-MH (Fab, V domains shown)
VH: B2 VH
VL: B2 VL
notes: Fab mini-antibody format Fab-dHLX-MH, a dimer of the Fab monomer; also called MSPRO26 dimeric dHLX format; Fab-dHLX
B10: MS-Pro-28-dHLX-MH (Fab, V domains shown)
VH: B1 VH
VL: B1 VL
notes: Fab mini-antibody format Fab-dHLX-MH, a dimer of the Fab monomer; also called MSPRO28 Fab-dHLX
B11: MS-Pro-11-dHLX-MH (Fab, V domains shown)
VH: B3 VH
VL: B3 VL
notes: Fab mini-antibody format Fab-dHLX-MH, a dimer of the Fab monomer; also called MSPRO11 Fab-dHLX
B12: MS-Pro-24-dHLX-MH (Fab, V domains shown)
VH: B7 VH
VL: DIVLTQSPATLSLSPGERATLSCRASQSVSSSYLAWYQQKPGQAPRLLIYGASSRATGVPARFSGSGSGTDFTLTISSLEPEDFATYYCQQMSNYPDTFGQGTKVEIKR
notes: Fab mini-antibody format Fab-dHLX-MH, a dimer of the Fab monomer; also called MSPRO24 Fab-dHLX

biological target: T3, FGFR3 (wild type) on cells (human, UniProt P22607 23-806); assay: FACS
T3 construct: also called FDCP-FR3; FDCP-FGFR3
T3 sequence (P22607 23-806 limits assumed): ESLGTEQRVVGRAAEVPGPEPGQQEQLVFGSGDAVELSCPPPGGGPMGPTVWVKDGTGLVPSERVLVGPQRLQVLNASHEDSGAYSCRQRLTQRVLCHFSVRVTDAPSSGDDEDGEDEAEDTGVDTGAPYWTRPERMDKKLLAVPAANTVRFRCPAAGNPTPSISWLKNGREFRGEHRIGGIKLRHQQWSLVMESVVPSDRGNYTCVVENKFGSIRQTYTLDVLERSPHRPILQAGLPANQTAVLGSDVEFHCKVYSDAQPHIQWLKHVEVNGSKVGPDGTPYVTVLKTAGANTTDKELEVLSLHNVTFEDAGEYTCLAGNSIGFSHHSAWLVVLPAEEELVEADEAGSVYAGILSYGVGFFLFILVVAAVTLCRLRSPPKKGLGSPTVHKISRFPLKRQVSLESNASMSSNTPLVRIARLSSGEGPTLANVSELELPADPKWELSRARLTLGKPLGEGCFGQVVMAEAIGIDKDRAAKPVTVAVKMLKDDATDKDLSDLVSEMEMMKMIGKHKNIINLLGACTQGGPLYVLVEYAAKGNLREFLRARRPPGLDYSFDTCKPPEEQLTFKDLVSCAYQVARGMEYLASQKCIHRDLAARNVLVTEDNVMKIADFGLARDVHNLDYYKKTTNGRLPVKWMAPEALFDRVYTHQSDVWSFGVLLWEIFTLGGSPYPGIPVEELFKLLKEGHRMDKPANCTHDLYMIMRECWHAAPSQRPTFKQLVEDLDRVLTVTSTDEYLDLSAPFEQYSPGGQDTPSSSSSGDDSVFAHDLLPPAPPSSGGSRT

Row | Kd [nM] | Binder
1 | 0.3 | B1
2 | 1.4 | B2
3 | 4 | B3
4 | < 1 | B4
5 | 6.5 | B5

biological target: T4, FR3exFc (human); assay: BIACORE
T4 construct: also called FGFR3/Fc; FR3/Fc
T4 sequence (chain, as listed by the source limits assumed): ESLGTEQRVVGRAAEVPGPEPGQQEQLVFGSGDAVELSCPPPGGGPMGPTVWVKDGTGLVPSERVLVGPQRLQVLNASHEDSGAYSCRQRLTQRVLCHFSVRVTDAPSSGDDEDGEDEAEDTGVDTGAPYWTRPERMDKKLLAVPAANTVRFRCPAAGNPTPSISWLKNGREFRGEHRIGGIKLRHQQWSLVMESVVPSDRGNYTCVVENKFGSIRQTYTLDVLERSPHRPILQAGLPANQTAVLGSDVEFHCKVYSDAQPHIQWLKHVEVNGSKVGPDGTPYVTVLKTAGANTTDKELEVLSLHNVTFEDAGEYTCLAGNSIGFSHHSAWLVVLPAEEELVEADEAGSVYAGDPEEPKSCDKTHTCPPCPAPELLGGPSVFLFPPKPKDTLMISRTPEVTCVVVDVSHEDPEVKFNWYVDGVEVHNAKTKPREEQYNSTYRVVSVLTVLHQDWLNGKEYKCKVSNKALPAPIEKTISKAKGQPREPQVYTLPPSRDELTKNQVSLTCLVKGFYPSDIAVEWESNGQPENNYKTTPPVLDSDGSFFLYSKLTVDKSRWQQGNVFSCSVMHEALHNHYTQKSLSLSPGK
Description: (§1) The affinity measurements were performed by BIACORE® analysis according to the standard procedure recommended by the supplier (Pharmacia). The anti-Fc antibody was coupled via the EDC/NHS chemistry to the chip and subsequently FGFR3 was captured. The Fabs of the invention were then bound to this surface.

Row | koff [s⁻¹] | Binder
6 | 0.004 | B1
7 | 0.00074 | B6
8 | 0.0005 | B2
9 | 0.0004 | B3
10 | 0.00071 | B4
11 | 0.0054 | B7
12 | 0.002 | B8
13 | 0.0023 | B5

biological target: T3, FGFR3 (wild type) on cells; assay: cell-based or functional assay

Row | IC50 FR3 (FGF9), FDCP-FGFR3 proliferation assay [nM] | Binder
14 | 50 | B1
15 | 34 | B6
16 | 70 | B2
17 | 220 | B3
18 | 19 | B4
19 | 70 | B7
20 | 45 | B8
21 | 58 | B5

biological target: T3, FGFR3 (wild type) on cells; assay: cell-based or functional assay; remark: another data set of the same source

Row | IC50, FDCP-FGFR3 proliferation assay with FGF9, dimeric dHLX format [nM] | IC50, FDCP-FGFR3 proliferation assay with FGF9, monomeric Fab (in parentheses) [nM] | Binder
22 | 8 |  | B9
23 |  | 70 | B2
24 |  | 58 | B5

biological target: T3, FGFR3 (wild type) on cells; assay: indirect FACS-Scatchard

Row | Kd [nM] | Binder
25 | 0.3 | B1
26 | 1.4 | B2
27 | 4 | B3
28 | 0.3 | B7
29 | 6.5 | B5

biological target: T4, FR3exFc; assay: BIAcore, Fab-dHLX-MH miniantibody

Row | Kd [nM] | Binder
30 | 1.6 | B10
31 | 2 | B9
32 | 0.7 | B11
33 | 2 | B12

biological target: T1, FR1exFc; assay: Affinity to FGFR1 (BIACORE and/or FACS)

Row | Kd [nM] | Binder
34 | 160 | B1
35 | 32 | B2
36 | 2.5 | B8

biological target: T4, FR3exFc; assay: BIACORE, FGFR3 captured on an anti-Fc chip
Description: as §1

Row | Kd [nM] | Binder
37 | 9 | B1
38 | 2.9 | B6
39 | 4 | B2
40 | 4 | B3
41 | 1.5 | B4
42 | 10 | B7
43 | 3.7 | B8
44 | 14 | B5

biological target: T4, FR3exFc; assay: BIACORE, FGFR3 captured on an anti-Fc chip; remark: another data set of the same source
Description: as §1

Row | Kd [nM] | Binder
45 | 9 | B1
46 | 4 | B2
47 | 4 | B3
48 | 10 | B7
49 | 14 | B5

biological target: T4, FR3exFc; assay: BIAcore; number in parentheses taken as the monomeric Fab
Description: as §1

Row | Kd [nM] | Binder
50 | 9 | B1
51 | 4 | B2
52 | 4 | B3
53 | 10 | B7
54 | 14 | B5

biological target: T2, hFR3^D2Fc; assay: ELISA, Fc fusion anchored on an anti-human Fc coated plate, bound Fab detected with HRP anti-human Fab
Description: Constructs comprising cDNAs that code for segments of the extracellular domain of FGFR3 were generated (FIG. 10). D2 comprises Ig domain 2, D2-3 comprises Ig domains 2 and 3, and D1-3 comprises Ig domains 1, 2 and 3. These constructs include pChFR3^D2Fc that codes for Ig-like domain 2 of FGFR3 and pChFR3^{D2,3}Fc that codes for domain 2 and 3, both as human Fc fusions. The corresponding chimeric proteins, as well as the control hFR3exFc (containing domains 1, 2 and 3) were anchored to an ELISA plate coated with a human Fc antibody. A panel of 8 best Fabs, MSPRO2, 11, 12, 21, 24, 26, 28 and 29, were added, and bound Fab was determined with HRP-α human Fab (FIG. 11). […] Both bind to the Ig like domain 2 while the others require domain 3 for binding. It was then tested whether or not Fabs that belong to the second group would distinguish the FGFR3IIIc isoform from the FGFRIIIb from. FDCP-FR3IIIb or FDCP-FR3IIIc cells were incubated in the presence of 1.25 ng/ml FGF9 with increasing doses of either MSPRO12 or MSPRO29. Ly6.3 was included as control. After 2 days in culture, cell proliferation was measured with the XTT reagent. Clearly, MSPRO29 (open triangle) was completely ineffective against the IIIb isoform (FIG. 12).

Row | binding result | Binder
55 | no binding | B1
56 | no binding | B2
57 | no binding | B3
58 | no binding | B7
